The text below walks through data of publication PMC9166738.

Assay [1] concerns the target Fdh3B-CodhA fusion protein with (GGGGS)1 linker (Thermococcus onnurineus NA1). In words: SEC; Strep-tag purified CFOR complex on a calibrated Superdex 200 10/300 GL column in buffer W, 0.5 ml/min, anaerobic; complex formed in cells and co-purified beforehand. On the technique in general: SEC sorts molecules by how far they enter the pores of the column.
The target in assay [2] is Formate dehydrogenase catalytic subunit Fdh3A with N-terminal Strep-tag (Thermococcus onnurineus NA1). Described as above.

By stoichiometry N is commonly meant a count of units in the complex or per binding partner.

In turn, “CO dehydrogenase catalytic subunit CodhB (enzyme)” showed a stoichiometry N in assay [1] of 2. As for “Fdh3B-CodhA fusion protein with (GGGGS)1 linker”, the stoichiometry N in assay [2] was 1.
